Data taken from the supplement of paper PMC9170038.

System: K4 kissing-loop RNA reporter
Test: apparent KD of K4 kissing-loop reporter; higher = weaker reporter binding
Details: Eterna round: R107; input ligand: arginine 13.2 mM
Description: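 RNA-MaP round R107: designed RNA switches with theophylline, tryptophan, arginine or FMN aptamers are transcribed on-chip within common flanks. They are titrated with a labelled K4 kissing-loop RNA reporter in RNA-MaP buffer (100 mM Tris pH 7.5, 80 mM KCl, 4 mM MgCl2), without ligand or with the indicated ligand. Median apparent KD per design.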
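Also: bound reporter read as fluorescence of individual clusters on recovered sequencing chips by microscopy, with normalized cluster intensities fitted with a binding model.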

| Sequence | apparent KD of K4 kissing-loop reporter |
| --- | --- |
| UCCUGCAAUCUGCCACGAAAGUGGAUUGAUACCAGAGUCGAAAGACUCCCUUGGCAGCGAGUGAUGUUCGAAGCAGGUAAAUAAA | 149 nM |
| UUAGAUCAAAGAUCAGUCUUAUUGAGAGAACGAGGACCGGUACGGCCGCCACUCGAGUGAUGUUCGAGAACUCUCUUGACAAAUU [AK1 EXC Tryptophan A] | 150 nM |
| UGAUUUAACUGAAGGAGCGGCAAUUGAUAAGUAAAUAUAGUGAUGUUAUAUAAGAUAGAGAGCCAGGUAGGUCGCAGAGGUAUGA [ExArgB.L] | 159 nM |
| UUUUUCCCGCAGGAUACCAGCAACCAAACGUCAUGCGAAGUGAUGUUUCGCUUACGGUAGUGCCCUUGGCAGCCUUCGGUAGGGU [thingy] | 161 nM |
| AGAACUGUCUGAGAUACCAGCCAUAGGAGUGAUGUUCCUAGCUCCACAAAGUGGAGCCAUAGCCCUUGGCAGCUCAGACAGUUCA [Omei KL Theo B SS A v7] | 763 nM |
| UGUCUUUUUUUGAUGUUUUUUGUAUAAUGGCAGGAUAUCGUAGAUGCGAGAAGGGCUUUUAUGCGUUAUGAGUGAUGUUUGUAGG [vjjbvmullin] | 260 nM |
| GCAAGGCUACAAGGAUAUGCGCGAACCUACCGCCAAGCGGCUACCGGUGAGUCAGUGAUGUUGGCUGCAGAAGGUGUGAUUGAGC [theeternabot_sameState_KL_FMN_B_45] | 301 nM |
| UCGCAUUAACCGGAUACCAGCUUAGUGGGAUCUUCAAUCCGACAGAAAGUGAUGUUUUCUAGCCCUUGGCAGCCGAGAUUAUCAC [theeternabot_sameState_KL_Theo_B_50] | 333 nM |
| GGGAACUCUUACGAUACCAGCCGGAGUGAUGUUCCGCGCUUGGACGUAGUAACCCGCACCGGCCCUUGGCAGCGUGGAUCUUAUA [Esbedi] | 73.5 nM |
| GGCGCCAGGAAAGGAUAUCUAAGUCUAUUAUCAAGAAUUGCCUCAAGAUCGGAGUGAUGUUCCCAGAGAGAAGGUUCUAUCCGCU [theeternabot_exclusion_KL_FMN_B_38] | 193 nM |
| UAAUGUGGCACAGGAUAUACUGAUUGGAGUGAUGUUCCAAACAUGAACAAGAGACUUUUACAAGAAGUAGAAGGGUGUUAGAUAU [Exclusion FMN B GF 19] | 265 nM |
| GGAUAGGACAGAGGAUAUGGUAGUGAUGUUACCAAACUGGUUAUCAAUGUUAGAAAAUUGACAAAACCAGAAGGCUGUCCUAUCG [KL-XFMN-B15] | 65.6 nM |
| AUUUAAUGUAUAGAUUAUAUACAUUAUUCAGAGGAUAUGCAUUGAAGCAGAAGGCUGGGUGUAGUGAUGUUGCAGUUUUAAUUUA [whbob_SS_FMNA__2th173] | 254 nM |
| GGCACUACAGCGGCCGCCACUGUUUAGUCCAUCGCUUGCGAGUGAUGUUCGUAGGUACUGCAGCUCAGGACCGGGCUGUCCUUAC [theeternabot_sameState_KL_Trp_B_34] | 393 nM |
| GCCUACGAUGCAGGAUAUAGCUCGCGAGUGAUGUUCGCAGCUGUAUGGUAGUAAGCUUCCACGUGUCUAGAAGGGCAUCGUAGGC [#01 K4 FMN B Exclusion] | 80.2 nM |
| AAAUAAAGCAGUCACCCAGUGAUGUUGGAAGGAGCGUGCGAAAGCACAGGUAGGUCGCCGAUAAGGACAAAGUCCAGUGGCUGCA [#SwitchBubble 28 #K4Early] | 344 nM |
| AAAUUUAUAUUAGAUACCAGUUUAAUGGAUGUAAAUUAUGACAUGAGUGAUGUUCAUGUAAGCCCUUGGCAGCUGGUAUGGGUUU [KL-XTheo-B21] | 110 nM |

| Sequence | apparent KD of K4 kissing-loop reporter |
| --- | --- |
| AUGCGCGUGCGAUGGAAAUCGCACGCGCAUCGAGGACCGGUACGGCCGCCACUCGCUCGCGCCGAGUGAUGUUCGGCCGGCGAAC [#2 SameState - Tryptophan_A Attempt #3 (HarryS)] | 162 nM |
| AUGACUCAAUAGUGAGUGAUGUUCACUGGACGAGGACCGGUACGGCCGCCACUCGAGAGUGGUGGACACUGUGUCACUGAGUCAU [Tryp A Ex t1] | 166 nM |
| AAACGUUGGUGCGAUACCAGCUGGUCGGAAACGACCUUGCUGGAGUGAUGUUCCAAGUAAAGCCCUUGGCAGCGCACCGACGAAA [MAT - Same State Theophlline B - Mod of Eli - D23] | 53.6 nM |
| AUACAGCGAAGCGCUAGUGAUGUUAGCGAAGGAGCGACUCAGGAGUCAGGUAGGUCGCGCUAAACAGGUUACGAGAGUAACCAGU [Arg A Ex t1] | 120 nM |
| CGGGAUGUUAAAGGAUAUAGCAGGUGAUACAAGAAAGUGAGUGAUGUUUAUGUAGAUGAUGAUAUGUUAGAAGGUUAACAAAACG [abcdefghijkl] | 726 nM |
| UUACCAAGUGAUGUUUGGAAAUAUCCUAGGCAGGAUAUGCGGAAACGCAGAAGGGCCACCUUCUAGUGAAGGAAACUUCGCUAUU [Ex FMN A 3] | 199 nM |
| GCUAUGGUAGGAAGGAGCGCUUACUCAUUAAUAAGAGUGAUGUUCGAUAAUGAGUAUUUAUAGCAGGUAGGUCGCCUACUAUAGC [Arginine B K4 3] | 221 nM |
| AGGAUCCGUCGACAAAAGUCGACAUAAGCCAAGGAUAUGACGAAAGUCAGAAGGUGGUCAUAAGACCAGUGAUGUUGGUGGAUCC [FmnA 13 #SwitchBubble #K4Late] | 279 nM |
| GCGCUUAAAUAAGGAUAUUACAGACUCAUCUACGAGUGAUGUUCGGUGCGCUGUGCACAGAGCCUGUAAGAAGGUAUAGCAUUGC [theeternabot_sameState_KL_FMN_B_41] | 716 nM |
| UUUAGGAGUGGUGUUGAUUAGGGAGCGGAAGGAGCGCCGAGGAAGGCAGGUAGGUCGCCGGAUUAUAGUGAUGUUAUGAAGAGGG [ExArg.M] | 723 nM |
| UGUGAGCUGUCGACAAAAGUCGACUAAAACUAGGAUAUGACGAAAGUCAGAAGGAGUCAAUAAUGGAGUGAUGUUCCUGCUCACU [FmnA 9 U31+A55] | 367 nM |
| GGGCGCGGCGCGGCCGCCACUGCGCCUGGGUGCUCGCUGAGUGAUGUUCGUCGGCGGUUGGGUGGUAGGACCGGGUGCUGGCCGG [BDazzled - #13 SS Tryptophan B] | 463 nM |
| UUUUAAAUAUCUGAUACCAGAGCGAAUAUAUGUAGUGAUGUUAUAUACAAAAUAAAUAAGCUCCCUUGGCAGCAGUAUUAAUUUU [Astros-ExyTheB#?#ED14.66] | 829 nM |
| CCCUAUAUAUGCAGUGAUGUUGCAACUGAUACCAGUAUCGAAAGAUACCCUUGGCAGCGGAAAACCGCUACGUAAUUUAAUAGGG [Ex Theophylline A K4 21] | 422 nM |
| ACCGCAUUGGGAUGAUCCCAAUGCGCUGGUCGAGGACCGGUACGGCCGCCACUCGUCCAGUGAUGUUGGAAUUGGGCUACUGAAG [KL-XTryp-A11] | 86.7 nM |
| GGCAUGGUGACGCGGCGGCCAUGCACUUGGGAGGAUAUGUUUCGUGACAGAAGGCCCAGUGAUGUUGGGUCUGUUCAAAAGGACU [Riteveat] | 170 nM |

Same assay, conditions: Eterna round: R107; input ligand: none

| Sequence | apparent KD of K4 kissing-loop reporter |
| --- | --- |
| UAAGAAUAAGAUGCAGUGAUGUUGCAUCUACGAGGACCGGUACGGCCGCCACUCGAGGUCCUCGAACUGCAUCAGAGGACAAUAA [(H,1)-(H,2)-(Trp1)-(Trp2)-(T)'-(H)'-(T)''] | 286 nM |
| AAAAUAAAUAGCAGUCAUGGAGUGAUGUUCCGAGGACCGGUACGGCCGCCACUCGACCAUCAUAAGAUGGAUGGCGAAGACUGCA [#SwitchBubble 24 #K4Early] | 483 nM |
| GGACACUAGGAAACUAGUGUCUCAACUGAAGGAGCGUGAAUAGUCACAGGUAGGUCGCAGUUUGUUAGUGAUGUUGACAUGAGUU [#16 K4 Arginine A Same State] | 514 nM |
| UGAUACCAGACGGCCGCCACUGCACCAGUCAAUGACUGAGUGCGGUAGUGCUCAGUGAUGUUGAGUAGGACCGGGUCUGGUAUCU [Mod of Eli's TrypBX 8 v3] | 131 nM |
| UUUAUUAAGACGGCCGCCACUGAAUCAUAGUGAUGUUAUGAUAUAAUUUUAGUGAUUUUGAUUAGCAGGACCGGGUCAAUUAUUA [#26 K4 Tryptophan B Exclusion] | 144 nM |
| GGUGACGGCCAGGAGUGAUGUAUAGAAUAGCGAGGACCGGUACGGCCGCCACUCGUGAAGAAAAGGGAGUGAUGUUCCGUAAUGG [Kazoo B] | 450 nM |
| CGCGCGCGCUGAGAGGCGCGCGCGAAUGAUACCAGUAUAUAAGAAUACCCUUGGCAGCAUAAGAAAGAUAUAGUGAUGUUGUAUA [SSTheophA.D] | 43.1 nM |
| AAGCAGUCACUCGAACCCAUCGAAGAUGGGCGAGGACCGGUACGGCCGCCACUCGGAGUGAUGUUCCGAAGACUGCAAAAUAAAA | 293 nM |
| GGGCAUCAGGCUGAUACCAGUGAUAAAGGAUAAGAGACAGGGAGUGAUGUUCCCUUUACCCACCCUUGGCAGCAGUUUAAGUUUG [Exclusion Theophylline B GF 16] | 111 nM |
| GAGAACUCUUACGAUACCAGCCGGAGUGAUGUUCCGUGCUUGGACGUAGUAACCCGCACCGGCCCUUGGCAGCGUGGAUCCUAUG [Biorar] | 82.3 nM |
| UCCUGCAAUCUGCCACGAAAGUGGAUUGAUACCAGAGUCGAAAGACUCCCUUGGCAGCGAGUGAUGUUCGAAGCAGGUAAAUAAA | 124 nM |
| UUAGAUCAAAGAUCAGUCUUAUUGAGAGAACGAGGACCGGUACGGCCGCCACUCGAGUGAUGUUCGAGAACUCUCUUGACAAAUU [AK1 EXC Tryptophan A] | 169 nM |
| UGAUUUAACUGAAGGAGCGGCAAUUGAUAAGUAAAUAUAGUGAUGUUAUAUAAGAUAGAGAGCCAGGUAGGUCGCAGAGGUAUGA [ExArgB.L] | 158 nM |
| UUUUUCCCGCAGGAUACCAGCAACCAAACGUCAUGCGAAGUGAUGUUUCGCUUACGGUAGUGCCCUUGGCAGCCUUCGGUAGGGU [thingy] | 183 nM |
| AGAACUGUCUGAGAUACCAGCCAUAGGAGUGAUGUUCCUAGCUCCACAAAGUGGAGCCAUAGCCCUUGGCAGCUCAGACAGUUCA [Omei KL Theo B SS A v7] | 1150 nM |
| UGUCUUUUUUUGAUGUUUUUUGUAUAAUGGCAGGAUAUCGUAGAUGCGAGAAGGGCUUUUAUGCGUUAUGAGUGAUGUUUGUAGG [vjjbvmullin] | 297 nM |
| GCAAGGCUACAAGGAUAUGCGCGAACCUACCGCCAAGCGGCUACCGGUGAGUCAGUGAUGUUGGCUGCAGAAGGUGUGAUUGAGC [theeternabot_sameState_KL_FMN_B_45] | 365 nM |
| UCGCAUUAACCGGAUACCAGCUUAGUGGGAUCUUCAAUCCGACAGAAAGUGAUGUUUUCUAGCCCUUGGCAGCCGAGAUUAUCAC [theeternabot_sameState_KL_Theo_B_50] | 331 nM |
| GGGAACUCUUACGAUACCAGCCGGAGUGAUGUUCCGCGCUUGGACGUAGUAACCCGCACCGGCCCUUGGCAGCGUGGAUCUUAUA [Esbedi] | 73.9 nM |
| GGCGCCAGGAAAGGAUAUCUAAGUCUAUUAUCAAGAAUUGCCUCAAGAUCGGAGUGAUGUUCCCAGAGAGAAGGUUCUAUCCGCU [theeternabot_exclusion_KL_FMN_B_38] | 186 nM |
| UAAUGUGGCACAGGAUAUACUGAUUGGAGUGAUGUUCCAAACAUGAACAAGAGACUUUUACAAGAAGUAGAAGGGUGUUAGAUAU [Exclusion FMN B GF 19] | 223 nM |
